According to publication PMC12431651 (2025):

Target: T1, MED25 ACID (Homo sapiens, UniProt Q71SY5)
T1 chain: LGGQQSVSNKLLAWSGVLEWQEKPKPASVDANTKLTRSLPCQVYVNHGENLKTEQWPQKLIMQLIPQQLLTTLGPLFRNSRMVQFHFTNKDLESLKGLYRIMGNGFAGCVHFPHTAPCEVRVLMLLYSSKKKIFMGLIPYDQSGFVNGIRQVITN
Assay: BLI

B1: NS1 (protein)
chain: MGSNSLSMIKVRLQNLFDNDEVALLKITCYTDKLIHLTNALAKAVIHTIKLNGIVFVHVITSSDICPNNNIVVKSNFTTMPVLQNGGYIWEMMELTHCSQPNGLLDDNCEIKFSKKLSDSTMTNYMNQLSELLGFDLNP
With B1 the Kd was 16 nM.
